Tests used:
CD33 = CD33 (UniProt P20138); assay: Malibu-Glo assay; NLuc fusion supernatant on HL60 cells, control Jurkat cells
CD22 = CD22 (UniProt P20273); assay: Malibu-Glo assay; NLuc fusion supernatant on RAJI cells, control K562 cells
Sequence of CD22 (P20273 20-847 limits assumed): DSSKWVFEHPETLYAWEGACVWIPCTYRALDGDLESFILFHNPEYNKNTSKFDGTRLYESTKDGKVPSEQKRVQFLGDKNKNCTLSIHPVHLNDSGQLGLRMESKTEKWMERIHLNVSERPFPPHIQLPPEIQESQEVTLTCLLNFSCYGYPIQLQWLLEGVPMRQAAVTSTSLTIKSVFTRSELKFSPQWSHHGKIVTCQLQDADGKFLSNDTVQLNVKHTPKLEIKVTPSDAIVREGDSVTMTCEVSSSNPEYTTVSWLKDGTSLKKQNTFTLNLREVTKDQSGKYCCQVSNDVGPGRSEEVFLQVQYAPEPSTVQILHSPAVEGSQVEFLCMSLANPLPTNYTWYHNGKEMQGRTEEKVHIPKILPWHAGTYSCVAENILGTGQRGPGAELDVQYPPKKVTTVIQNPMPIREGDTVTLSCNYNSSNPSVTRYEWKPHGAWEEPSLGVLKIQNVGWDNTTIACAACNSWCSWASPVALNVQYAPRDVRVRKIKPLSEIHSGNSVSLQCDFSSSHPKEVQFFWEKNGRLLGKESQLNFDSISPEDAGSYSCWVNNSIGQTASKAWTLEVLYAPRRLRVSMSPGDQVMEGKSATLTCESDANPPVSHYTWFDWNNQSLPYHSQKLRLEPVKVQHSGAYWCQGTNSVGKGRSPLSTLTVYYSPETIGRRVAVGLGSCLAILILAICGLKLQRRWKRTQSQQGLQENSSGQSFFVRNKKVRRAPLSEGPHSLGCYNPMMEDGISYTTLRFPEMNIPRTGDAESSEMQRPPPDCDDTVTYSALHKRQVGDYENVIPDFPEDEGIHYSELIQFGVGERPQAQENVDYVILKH

Sequence of CD33 (P20138 18-364 limits assumed): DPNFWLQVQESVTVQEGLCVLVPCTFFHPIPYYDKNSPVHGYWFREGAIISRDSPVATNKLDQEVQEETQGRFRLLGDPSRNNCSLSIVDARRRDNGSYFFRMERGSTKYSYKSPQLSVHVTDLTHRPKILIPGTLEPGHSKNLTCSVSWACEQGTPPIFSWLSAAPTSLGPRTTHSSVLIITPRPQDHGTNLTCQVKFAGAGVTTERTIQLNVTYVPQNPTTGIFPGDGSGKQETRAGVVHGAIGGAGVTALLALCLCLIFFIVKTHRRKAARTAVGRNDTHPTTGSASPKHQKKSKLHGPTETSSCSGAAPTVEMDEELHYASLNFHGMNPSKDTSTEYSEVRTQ

Row | Binder | Fold Change (Luc activity, target cell line over control cell line) (CD33) | Fold Change (Luc activity, target cell line over control cell line) (CD22)
1 | hA873-G30S vHH (CD33), NLuc fusion (VHH, part only; not given: NLuc luciferase fusion partner, part only) VHH, part: QVQLVESGGGVVQPGRSLRLSCVASGYTYSINCMGWFRQAPGKGREGIAAISTGGGTTGVADSVKGRFTISQDNAKNTVYLQMNSLRAEDTAMYYCAARSTYSGYACVYSEVNGYNYRGQGTQVTVSS | 17 fold | –
2 | hu-077-USC1 vHH (CD22), NLuc fusion (VHH, part only; not given: NLuc luciferase fusion partner, part only) VHH, part: QVQLQESGPGLVKPSQTLSLTCTVSGGSITTGEFYWNWFRQPPGKGLEWMGAIAASGSTTYSPSFESRTSISRDTSKNQFSLKLSSVTAADTAVYYCGRSFGVAAVTTGQNRGQGTLVTVSS | – | 4.32 fold

Source: patent publication US20260226133A1
